Patent publication US20250161408A1, “PEPTIDIC INHIBITORS OF AMYLOID SELF- AND CROSS-ASSEMBLY” (TECHNISCHE UNIVERSITÄT MÜNCHEN, priority 2022, published 2025)

Assays:
[1] = target: Aβ42 fibrils (fAβ42) (Homo sapiens (Human)) (UniProt P05067)
[2] = target: Aβ42 (Homo sapiens (Human)) (UniProt P05067)
[3] = target: islet amyloid polypeptide (IAPP) (human) (UniProt P10997)
[4] = target: IAPP fibrils (fIAPP) (human) (UniProt P10997)

- proteinase K digestion followed by dot blot (6E10) [1]: 2 h
- proteinase K digestion of hf-Aβ42/Nle3-VF followed by dot blot (6E10) [2]: 30 min
- proteinase K digestion of hf-IAPP/ACM followed by dot blot [3]: < 6 h
- proteinase K digestion followed by dot blot (anti-fIAPP antibody) [4]: > 30 h
Substance: proteinase K (PK) (from UniProt P06873) (enzyme)
